Test results taken from the nanobody polyreactivity screen of Harvey et al. (2022).

Assay: yeast display, Sf9 membrane polyspecificity reagent, FACS + sequencing; frameworks hold sequencing errors
Procedure, shortened: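 Galactose-induced (36–48 hours) yeast carrying a synthetic nanobody display library were exposed to 10% biotinylated, detergent-solubilized Sf9 membrane reagent at 4 °C for 1 hour. FACS followed streptavidin microbead enrichment, using low and high (top ~1%) gates for expression (anti-HA) and reagent binding (streptavidin). Colony PCR, MiSeq 2 × 250 sequencing and CDR-length filtering followed. Labels for polyreactivity reflect the gate of origin.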
With “QDQHVESGGGVVQAGGSRRLSCAASGFTISSYAMGWYRPAPGKERHLVAAITWSGSRTYYADSVKGRFTISRDNAKNTVYLQMNSLKPEDTAVYYCAATYRSYRGVRYYLGQGTQVTVSS” the “polyreactivity (PSR sort gate)” value was “high polyreactivity”.
In the case of “QDQHVESGRGLVQEGGSLRLSSPPSGRTIYEYAIGWYRQAPGKETQLVAGITTSGGSTYYAVSVKGRFTISRDNAKNTVYLQMNSLKPEDTAVYYCAKYRKSRGDNDSWGQGTQVTVSS”, the “polyreactivity (PSR sort gate)” value is reported as “high polyreactivity”.
With “QDQIVDSRGVLVQEGGSLGLSCAASGLTIYSYAMGFSRQAPRKERELVATITNGDTTTYAETVKARFTISRDNAKNNVIFQFNILKPEDTAVYYCAQHISPGYDEYDYWGQGTQVTVSS” the “polyreactivity (PSR sort gate)” value was “low polyreactivity”.
For “QDQLEESGGGLVQEGGSLRIICDAYRSTFYANTMGWYRQSTGKERELVATISIDGSTNYADSVKGRFTFSRDYAKNTVYLQMNSLKPEDTAVYYCNADVYSVLYGYWGQGTQVSVSS”, the “polyreactivity (PSR sort gate)” value was “low polyreactivity”.
For “QDQLEESGVGLLQAGGSLRLSCAASGNTFFVNDMGWYRHAPRKERELLAVISINGDSTFYADSVKGRFTISRDNAKNTVYLQMNSLKPEDTAVYYCAADFRRVFCKYSYYLYFEFDYWGQGTQVTVSS”, the “polyreactivity (PSR sort gate)” value was “low polyreactivity”.
For “QDQLGESGGGLVQAGGSLRLSCAAAGSIFGTNAMGWYRQAPGKEREFVATISSRTGSTYYADSVKGRFTISRDNAKNRVYLQMNSLKPEDPAVYYCAAVRWYGKYDDWGQGTQVTVSS”, the “polyreactivity (PSR sort gate)” value was “low polyreactivity”.
In the case of “QDQLGESGGGLVQAGGSLRLSCAASGSTFRYYAMGWYRQAPGKERELLAAITSSGGSTYYADSVKGRFTISRDNAMNTVYLQMNSLNPEDTAVYYCAVAVKNWVKLNYWGQGTQVTVSS”, the “polyreactivity (PSR sort gate)” value is reported as “high polyreactivity”.
For “QDQLLESGGGLGQAGGSLRLSCAASGITFGRYAMGWYRQAPGKERELVAAITWGGGSTYYADSVKGRFTISRDNAKNTVYLQMNSLKPEDTAVYYCAARSYGRWFGGYDSWGQGTQVTVSS”, the “polyreactivity (PSR sort gate)” value was “high polyreactivity”.
In the case of “QDQLLESGGGLVQAGGSLRLSCAASGRTFRYYTMGWYRQAPGKEREFVAAISSTGGTYYADSVKGRFTISRDNAKNTVYLQMNSLKPEDTAVYYCAATFIQFVVNVELYDYDYWGQGTQVTVSS”, the “polyreactivity (PSR sort gate)” value is reported as “low polyreactivity”.
With “QDQLVDSGGCLVQAGGSLSLSCAASGNTFNIYAMGWYRQAPGKEREFVAAITVSDTSTYYADSVKGRFTISRDNAKNTVYLKMHSLKPEDTSVYYCNADWWCTYDYYYWGQGTQGTVSS” the “polyreactivity (PSR sort gate)” value was “low polyreactivity”.
For “QDQLVDSGGGLDQAGGSLRLSCAATGRTIGINAMGWYRQAPGKERELVAVISFGDGGTYSADSVKGRFTISRDNAKNTVYLQMNSLKPEDTAVYYCATDYQSTSVWGGHFVINPFDYWGQGTQVTVSS”, the “polyreactivity (PSR sort gate)” value was “low polyreactivity”.
In the case of “QDQLVDSGGGLVQAGGSLRFSCAASGFIFRFNAMGWYRQAPGKERELVADIRWSSGSTYYADSVKGRYTISRDNAKNTVYLEMNSLKPEDTAVFYCAVTYLRVHYKFTPFDYWGQGTQVTVSS”, the “polyreactivity (PSR sort gate)” value is reported as “low polyreactivity”.
For “QDQLVDSGGGLVQAGGSLRLSCAASGRISGYYAMGWYRQAPGKERELVASITYRGGSTYYADSVKGRFTISRDNAKNTVYLQINSLKPEDTAVYSCNFRYRPNRGSIGQPNSGKNWYDYWGLGTQVTVSS”, the “polyreactivity (PSR sort gate)” value was “high polyreactivity”.
In the case of “QDQLVDSGGGLVQAGGSLRLSCAASGRTFYTYAMGWYRQAPGKEREFVARISKRGGGTYYADSVKGRFTISRENAKNTVDLQMNSLIPEDTAVYYCNAGVPSAMDYWGQGTQLTVSS”, the “polyreactivity (PSR sort gate)” value is reported as “high polyreactivity”.
In the case of “QDQLVDSGGGLVQAGGSLRLSCAASGSIFYLYAMGWYRQAPGKEREFVAAITWRGGSTYYADSVKGRFTISRDNAKNTVYLQLNSLKPEDTAVYYCGAKLPRVYGYGFEYWGQGTQVTVSS”, the “polyreactivity (PSR sort gate)” value is reported as “low polyreactivity”.
In the case of “QDQLVDSGGGLVQAGGSLRLSCAASGSIYDPYAMGWYRQAPGKERELVATIDWDDASTYYADSVKGRFTISRDNAKNTVYLQMNSLKPEDTAVYYCATRDRAGYYYWGQGTQVTVSS”, the “polyreactivity (PSR sort gate)” value is reported as “high polyreactivity”.
For “QDQLVDSGGGLVQAGGSLRLSCASSGGTFSYYTMGWYRQAPGKERELVARISKNGGRTYYADSVKGRFTISRDNAKNTVYLQLNSLKPEDTAVYYCNAAGRTYDFSGGRTMEYWGQGTQVTVSS”, the “polyreactivity (PSR sort gate)” value was “high polyreactivity”.
For “QDQLVDSRGGLVKAGGSLRLSCSASGRTFYYYAMGWSRQAPGQERELVADINTRVTSTYYADSVKGRFTISRDNAKNTVYLQMNSLKPEDTGVYYCAVDPYGDSWEDWLRNYYYGYDYWGQGTQVTVSS”, the “polyreactivity (PSR sort gate)” value was “low polyreactivity”.
For “QDQLVDSRGGLVQAGGSLRLSCAASGLIFRSYAMGWSRQAPGKERELVAAITDLFWSTYYADSVKGRFTISRDYAKNTVYLQMNSLKPEDNAVFYCARDDWVYTNVEMDYWGQGTQVTVSS”, the “polyreactivity (PSR sort gate)” value was “high polyreactivity”.
With “QDQLVESAGGLVQAGGSLRLSCAASGRTFRAYAMGWYRQAPGKAMELVAAISRNGGTTYYADSVKGRFTMSRDNAKNTVYLQMNSLKPEDTAVSYCNARAGTKTGLKSDYWGQGTQVTVSS” the “polyreactivity (PSR sort gate)” value was “high polyreactivity”.
In the case of “QDQLVESCGCLVQAGGSLRLSCASSGSTFGTYAMGWYRQAPGKERELVAAISSGDSTTYADSVKGRFTISRDNAKNTVYFQRNSLKQVDTAVYYCAARTFLMRNGGYNYWGEGTQVTVSS”, the “polyreactivity (PSR sort gate)” value is reported as “low polyreactivity”.
With “QDQLVESCGGLVQAGGSLRLICAASGITFRYNAMGWYRQAPGKERELVAAITFSGGSTYYADSVKGRFTISRDNAKNTVYLQMISLKPEDTAVYYCAARKARPPFPHPFDYYWGQGTQVTVSS” the “polyreactivity (PSR sort gate)” value was “low polyreactivity”.
In the case of “QDQLVESGAGLVQAGGSLRLSCAASGRIFTPYAMGGYRHAPRKERELVAVIRDGSTYFADSVKGRFTISRDNAKNTVYFQMKSLKPEETAGYYCRYDIWVWWSGAYDYWGQGTQVTVSS”, the “polyreactivity (PSR sort gate)” value is reported as “low polyreactivity”.
In the case of “QDQLVESGGALVQAGGSLLLSCAASGITFGDHAMGWYRQAPGKEWELFAAISWSGDRTFYADSVTGRFTISRDNAKNTVSLQMNSLNPADTAVYYCNAEIGWHNEGRLSTYDYWGQGTQVTVSS”, the “polyreactivity (PSR sort gate)” value is reported as “low polyreactivity”.
For “QDQLVESGGCLVQAGGSLRLSCAASGSIFKRNAMGWYRQAPGKERELVASISWSGTRTYYADSVKGRFTISRDNAKNTVYLQMNSLKPEDTAVYYCARRIYGGHPSQSTQGDFYYWGHGTQVTVSS”, the “polyreactivity (PSR sort gate)” value was “high polyreactivity”.
In the case of “QDQLVESGGGIVQAGGSLRLSCAASGRIFYGYAMGWYRQAPGKERELVAAITSRGTSTYYADSVKGRFTISRDNAKNTVYLQMNSLKPEDTAVFYCNAAYGRSFYSKVFSYNYWGQGTQVTVSS”, the “polyreactivity (PSR sort gate)” value is reported as “high polyreactivity”.
For “QDQLVESGGGIVQAGVSLRLSCAANGIIFDYYAMGWYRQAPGKERELVAAINRNGGTTYYADSVKGRFTISRDNAKNTVYLQMICLKPEDTAVYYCAAVDFGWSTYYYWGQGTQVTVAS”, the “polyreactivity (PSR sort gate)” value was “high polyreactivity”.
For “QDQLVESGGGLDQARGSLRLICAASGSTFKYYAMPSYRQAPGKERELVAAISWSGGNTYYADSVKGRFTISRENAKNTDYLQMNCLKPEDTAVYYCAADTKVGNGIKFDYWGQGTHVTVSS”, the “polyreactivity (PSR sort gate)” value was “high polyreactivity”.
For “QDQLVESGGGLLQAGGSLRLSCAASGRTFRYYAMGWYRQAPGKERELVAAISWSGSSTYYADSVKGRFTISRDNAKNTVYLQMNSLKAEDTAVYDCNAKGVRGKYFDYSRVSAYDYWGQGTQVTVSS”, the “polyreactivity (PSR sort gate)” value was “low polyreactivity”.
For “QDQLVESGGGLLQAGGSLSLSCAASGFTIYGYAMVWYRQAPGKERELVAAITNSGGRTYYADSVKGRFTISRDNAKNSVYLQMKSLKPEFTAVYFCAVDDLRGYDYWGQGTQVTVSS”, the “polyreactivity (PSR sort gate)” value was “low polyreactivity”.
In the case of “QDQLVESGGGLVEAGGSLRLSCAASGITFSWYAMVWKRQAPGKEREFVAAISPGGTSTYYADSVKGRFTISRDNAKKTVYLQMNSLKPEDTAFYYCAVQWLYPYDYWGHGTQVTVSS”, the “polyreactivity (PSR sort gate)” value is reported as “high polyreactivity”.
In the case of “QDQLVESGGGLVHAGGSLRLSCAASGLTFGRNAMGWYRQAPGKERELVAAISRSGGRTSYADSVKGRFTISRDNAKYTVYLQMHSLKPEDTAVYYCAARSDVFTHDYWGQGTQVTVSS”, the “polyreactivity (PSR sort gate)” value is reported as “high polyreactivity”.
For “QDQLVESGGGLVHAGGSLRLSCAASGSTFSIYAMGWYRQAPGKERELVAAIPYSGGSTYYADSVKGRFTISRDNAKNTVYLQMHSLKPEDTAVNYCAAEVYDSRWWYSGATDDYWGQGTQVSVSS”, the “polyreactivity (PSR sort gate)” value was “high polyreactivity”.
With “QDQLVESGGGLVQAAGSLRLSCAASGSTFLGNALGWYRQARGKERQLVAAISGRGGSTYYADSVKGRFTISRDNAKNTVYVQMNSLKPEDTAVYYCNAVGRRVRTWHDYDYWGKGTQVTVSS” the “polyreactivity (PSR sort gate)” value was “high polyreactivity”.
With “QDQLVESGGGLVQAGASLRLSCAASGFTFHNKFKGWYRQAPGKERELVATISKSGGSTYYADSVKGRFTISRDYAKNTVNLQMNSLKPEDTAVYYCARRYRDYGRYGYWGQGTQVTVSS” the “polyreactivity (PSR sort gate)” value was “high polyreactivity”.
With “QDQLVESGGGLVQAGCSLRLSCAASGSTFHLNAMGWYRQAPGKERELVAAITWSGGSTYYADSVKGRFTISRDNAKNTVYLQMNSLKPEDTAVYYCNAGLGKFPVKGGRRYRLDYWGQGTQVTVSS” the “polyreactivity (PSR sort gate)” value was “low polyreactivity”.
For “QDQLVESGGGLVQAGGRLRLSCAASGSIFNYYTMGWYRQAPGKETELVAAITWSGGRTYYADSVKGRFTISRDNAKNTVYLQMNSLKPEDTAVYYCNAVAYKPGGGEDFESWGQGTQVTVSS”, the “polyreactivity (PSR sort gate)” value was “high polyreactivity”.
With “QDQLVESGGGLVQAGGRLRLSCAASGSTFRRYAMGWYRQAPGTERDWVAAISGGGGSTYYADSVKGRFTISRDNAKNTVYLQMNSLKPEDTAVYYCNIPFPYYPDGPNGYDYWGQGTQVTVSS” the “polyreactivity (PSR sort gate)” value was “low polyreactivity”.
With “QDQLVESGGGLVQAGGSHRLSCAASGRIFARNAMGWYRQAPGKERELVATIRVGGGSTYYADSVKGRFTISRDNAKNTVYLQLNSLKPEDTAVYDCAVRQLYSYPGDRRGYYWGQGTQVTVSS” the “polyreactivity (PSR sort gate)” value was “low polyreactivity”.
For “QDQLVESGGGLVQAGGSIRLSCAASGSILRSNALGWYRQAHVQERELVAAITFNGGSTYADSVKGRFTISRDNAKNNVYLQMNSLKPVDTSVSYCATGDGPCLFDYWGQGTQVTVSS”, the “polyreactivity (PSR sort gate)” value was “low polyreactivity”.
In the case of “QDQLVESGGGLVQAGGSIRLSCAASGYIFLLYDMGWYRQAPGKERDMVATITSGGGTYYADSVKGPFTISRDNAKNTVYLQMNSLKPEDTAVYYCNADLYRWTGRSYWDKHGYWGQVTQVTVSS”, the “polyreactivity (PSR sort gate)” value is reported as “low polyreactivity”.
In the case of “QDQLVESGGGLVQAGGSLRISCAASGITLEYNAMGGYRQAPGKERELVATIRSGGSTNYADSVKVRFTISRDNANNTVYLQMNSLKPEDTAVYYCAANHNTEYDWGQGTQVTVSS”, the “polyreactivity (PSR sort gate)” value is reported as “high polyreactivity”.
In the case of “QDQLVESGGGLVQAGGSLRISCAASGSIFDVNAMGWYRQAPGKERELVAAISDSGGSTYYADSVKGRFTISRDNAKNTVYLEMNSLKPVDTAVYYCNADWSWYNYYDFDYWGQGTQVTVSS”, the “polyreactivity (PSR sort gate)” value is reported as “low polyreactivity”.
